Holding throughout (type): biochemical, Quillaja saponaria
The nature of test [1]: Experiment 6-2: screening of rhamnosidases for derhamnosylation of saponins in treated bark extract (25%), relative % of Left, Middle and Right Peak by UV HPLC. Particulars: TBE 25%, pH 7.4, 19.5 h; for Left Peak: mainly QS-17 family, negative control 24%; for Middle Peak: mainly QS-18 and desglucosyl-QS-17 family, negative control 50%; for Right Peak: mainly QS-21 family, negative control 26%.

A short description of test [2]: Experiment 6-3: screening of rhamnosidases for derhamnosylation of saponins in crude bark extract (80%), relative % of Left, Middle and Right Peak by UV HPLC. Particulars: CBE 80%, pH 7.4, 30 degC, 19.5 h; for Left Peak: mainly QS-17 family, negative control 27%; for Middle Peak: mainly QS-18 and desglucosyl-QS-17 family, negative control 48%; for Right Peak: mainly QS-21 family, negative control 26%. How it is done:
Selected variants were expressed and lysed as in the method of experiment 6-1.
Crude bark extract (CBE) solution was adjusted to pH 7.4 by addition of NaOH (2M). 20 uL clarified lysate was transferred into fresh 96 well PCR plates. 80 uL CBE solution (pH 7.4) was added to each well of lysate to a final concentration of 80%. Plates were incubated at 30 degC with shaking for 19.5 h.
Quenched with 100 uL MeCN+2% AcOH and shaken at room temperature for 10 mins prior to centrifugation (10 min, 4 degC) to remove particulates. Samples were analysed by UV HPLC using method of Experiment 4-4.
Three key peaks of interest are apparent using this chromatography: Left Peak (retention time approximately 2.30-2.35 min) comprising mainly QS-17 family components; Middle Peak (retention time approximately 2.37-2.42 min) comprising mainly QS-18 family components and desglucosyl-QS-17 family components; and Right Peak (retention time approximately 2.44-2.50 min) comprising mainly QS-21 family components. Peak identity was supported by MS/MS.
Enzyme mediated hydrolysis of the alpha-O-rhamnosylation at the C2 position of the arabinofuranose moiety of QS-17 family components leads to a decrease in Left Peak and an increase in Middle Peak due to formation of QS-18 family components. Enzyme mediated hydrolysis of the alpha-O-rhamnosylation at the C2 position of the arabinofuranose moiety of desglucosyl-QS-17 family components leads to a decrease in Middle Peak and an increase in Right Peak due to formation of QS-21 family components.
The relative percentage of each peak was determined. A decrease in Left Peak and a concomitant increase in Middle Peak and Right Peak is observed for enzymes active under these conditions.

A short description of test [3]: Experiment 6-1: screening of rhamnosidases for derhamnosylation of saponins in treated bark extract (2%), QS-17 2296 to QS-18 2150 (PAR %). Particulars: TBE 2%, pH 7.5, 30 degC, 18 h; TIC peak area ratio percent of rhamnosylated starting saponin to derhamnosylated product, LCMS/MS; negative controls 4.876, 5.225.
Test [4] can be described thus: Experiment 6-1: screening of rhamnosidases for derhamnosylation of saponins in treated bark extract (2%), QS-17 2310 to QS-18 2164 (PAR %). Particulars: TBE 2%, pH 7.5, 30 degC, 18 h; TIC peak area ratio percent, LCMS/MS; negative controls 3.061, 2.429.
Test [5] is described as follows: Experiment 6-1: screening of rhamnosidases for derhamnosylation of saponins in treated bark extract (2%), desglucosyl-QS-17 2134 to QS-21 1988 (PAR %). The settings on record: TBE 2%, pH 7.5, 30 degC, 18 h; TIC peak area ratio percent, LCMS/MS; negative controls 2.719, 2.158.
Test [6] can be described thus: Experiment 6-1: specificity of rhamnosidases towards other rhamnose residues (C3 saccharide rhamnose, C28 saccharide rhamnose). Particulars: TBE 2%, pH 7.5, 30 degC, 18 h; LCMS/MS; negative controls 0.18, 0.17.

B1: 989 (protein, listed as Rhodothermus marinus)
chain: MVLLFLGGAKEGAAQSNQALQVASLRTEYLVNPIGIEVRQPRLSWQLQSDRRDVRQVAYQIQVATSREALARGRDLVWDSGRVESDQSVFVPYGGPALQRRQRYYWRVRVWDNHGRSSAWSEPAFWEMGLLSPDEWRAQWITYNWEEDTSQPQPAPMLRRTFRVEGRVRRARLYITSLGLYEAHLNGRRVGDQLFTPGWTSYHHRLQYQTYDVTDLLRPGENALGVILGDGWYRGYLTWSVRRNVYGDRLALLAQLEITYEDGRTQVVTSDPDWKATTGPIRMSDIYMGEIYDARLEKEGWTEPGYDDSDWRGVRVLEHPKDILIAPIGPPVRRIQEIRPVAILYTPAGDTVVDMGQNMVGWVRLRVRGPAGTVVTLRHAEVLDKHGNFYTENLRRARQTDQYILKGEGEEVFEPHFTFHGFRYVAVSGYPGELTPEAITGIVIHSAFEPTGTWVSSDSLLNRLQLNIQWGMKGNFLDVPTDCPQRDERLGWTGDAQVFARTAMFNGLVGGFFTKWLGDVAADQSPEGAVPHVVPNVLPSFAGRFPGGATGWADAAVVIPWTMYQVYGDRRILEVQYPSMKAWVEYMRREAGDDLIWDTGFHFGDWLAFVPEENVRRAYPGATTGRDFLATAYFAYSTRLLAQAAEVIGKTDEARHYRQLYEAIREAFNREFVTPNGRVAQATQTAYTLAIQFDLLPEHLRAEAGRRLAEDVRAHNMHLTTGFLGTPQLLHALSNTGQLDVAYTLLRQTTYPSWLYQVKMGATTMWERWDSIKPDSTFQDPSMNSFNHYAYGSVGDWMYRVVAGIDTETPGYQRLRIAPQPGGGLKWVQARYHSLYGEVASSWELVDPQTFVLEVTIPPNTTATVRLPGAQLASVQEGRQPVQSAAGVHRAYQDGADVVVEVGSGTYRFTYSPSAELVRRIQTQPEVGQPVTMSF
B1: in test [1], the “Left Peak” value stood at 19%, the “Middle Peak” value is 54% and the “Right Peak” value is listed as 26%. Moreover, in test [2], the “Left Peak” value was 29%, the “Middle Peak” value was 43% and the “Right Peak” value is 27%. Further, in test [3], the “QS-17 (PAR %)” value is 0.516%. The “Peak57 (PAR %)” value in test [4] is reported as 0.305%. Also, the “Peak75 (PAR %)” value in test [5] amounted to 0.478%. Also, the “ratio PP/QS-21” value in test [6] was determined as 0.18.

B2: 1041 (protein)
chain: MRAIRLRTEYLTEPLGLGITAPRLYWNADGGLRQTAYQVVARRGGETVWDTGKVASSRMTHVRYEGVPLGSRDRVDWSVVLWDEAGAAGPPAESWFELGLLDPADWTAEWITGDYTPEPDVRYPVDHFRRDFRVREPVLAARLYITAAGVYEAVLNGEPVSEARLGPGATDYRHRLHYQTFDVTSLLAADNVLEVRLADGWYRGSLGAFGATHVFGRETRLLAQLELTYPDGSTETVGSDERFRWSDDGPVRFADLQDGEVYDARLAPSYSGHARITTETMIPTAADNVPVTEHERFPARLLTTPSGARVLDFGQNLAGFVAFTVSGRAGQRLTLRLGEILDGAGEFTQRNFQLRKPVHEFGRDVEILLLTGQESEIKGELQPTPKQEVVFTASGGTDHYVTRFAVFGFRYALVETDLDIDPADFEAIAVYSAMEQTGTCVTSHEGVNRFLENTRWSMKGNFLDVPTDCPTRERLGWTGDAQVFFDTAAYLMDVGAFFRKWLRDVRDGQLADGKLSAVIPYNGTSMLYDTTGGSVGWADAVVLIPYRYWKRYGDESILRDCYDAMRRYAMFMITNAGPLDPEAAADNPHARYLYEKGVHLGDWLEAAEFRDPSPGRTPMPEEATAYLHYTMTHLAEIATVLGETADADLFAEYAQGAKAAYTHQFLRDGTLDTDRQAKLVRPLALGLADGDVKRRLEDRLVQAVKNRDFHVNTGFLSTPFVLPTLTAAGHPEIAYRMLDNEDAPSWLAEVKAGATTVWEDWEGKESRNHYSPGAVCQWLFDTVAGLRVTGENHFTIAPVPGGSLTSAQARYTSVYGTVASSWTRTGTDLHLTVTLPPNTTADVRLPNGTEHVVGPGTHEYTA
modifications: Frankia inefficax
For B2, in test [1], the “Left Peak” value was found to be 15%, the “Middle Peak” value is listed as 55% and the “Right Peak” value was determined as 30%. In test [2], the “Left Peak” value stood at 25%, the “Middle Peak” value came out at 48% and the “Right Peak” value stood at 27%. In test [3], the “QS-17 (PAR %)” value was determined as 0.507%. Besides, the “Peak57 (PAR %)” value in test [4] was determined as 0.000%. Also, in test [5], the “Peak75 (PAR %)” value came to 0.000%. Moreover, the “ratio PP/QS-21” value in test [6] stood at 0.16.

B3: 1053 (protein, listed as Solibacter usitatus)
chain: MKRAALLILLAGTLFGAASVRPQQLRCEYRVNPQGIDVKDPRLSWILAPVNPKGRGLTQSAYRILVSSSEAALRGNSGDLWDSGKIVSAESTQVAYQGKPLNSGTAAFWKVQVWDQDGQPSDWSAPAQWSMGLLRAEDWKGRWIGRDEAGVYKDSASDYQLLERARWIWDAGNAQAGAPVGNRFFRAAFTVPAGRKVTRALSVIGADNTADVYLNGEPIAVESKLPLPHAVDITHLVRPGENVIAVRATHSRADRPAGLIGGVRVEFASGDPVLLQTSNQWRTVAKPDPGWENPGFLDAAWQASKDLGAFGMAPWEGVGFLAQHRLPGRLLRKEFALEKKLRRATVYYSGLGLSELYLNGAKVGDHVLSPGLTDYDKHVLYVTFDVTRQLVQGKNAIGLMLGNGRYYAPRNDVPIKTRDFGYPKALVQLDLEFEDGSRANVVSDETWKYSADGPIRANNEYDGEEYDARREIAGWNKAGFDDAGWEAAKIVGASSGAVVAQMAEPLRVTETVKPLGVKKLRPGVFVFDMGQNLVGWCRLRVTGPKGTQVKLRHSETLKDDGSLYVDNLRSAKAEDIYTLKGVGAEVYEPRFTYHGFRYVEVTGFPGEPSASALDARVVHDDMERAGEFTSSSGLLNKIHHNMFWGIRGNYRSIPTDCPQRDERQGWLGDRGQVSRSESYMFDVAGFYSKWMTDLEDSQRPSGSIPDVSPNYWPLYNDDLTWPGTIIFIHGMLYDQYGDKRVLARGYPAMKKWMDYEKTFVKDGLISKDQYADWCVPPEDPKLIHSQDPRRVTDKTLIATSYYYQFLRTMSRYARILDRPTDAADFDKQADQVQDTFQRRFFKLESGMYDNGTQTSSILPLYFGMIPADFRPAVVQTLVRNIELQSNGHVGTGLVGAQWLMRTLSDAGYADLAYKIATQKTYPGWGYMVEQGATTIWELWNGNTADPAMNSGNHVMQIGDLAVWMYEYLAGIRTDPEKPGFRHAVIRPYPAGDLSFVKATHKTMYGPLASSWKREKGEFMLDVTVPANTTATVWVPAKDAASVTESGKKATDVKGVKFVRSENGSAIFEVSSGAYSFKSGI
Regarding B3, in test [1], the “Left Peak” value turned out to be 20%, the “Middle Peak” value is on record as 54% and the “Right Peak” value was 26%. Also, in test [2], the “Left Peak” value was determined as 26%, the “Middle Peak” value came to 48% and the “Right Peak” value stood at 26%. For the same molecule, the “QS-17 (PAR %)” value in test [3] is reported as 1.127%. In addition, in test [4], the “Peak57 (PAR %)” value is given as 0.550%. Moreover, the “Peak75 (PAR %)” value in test [5] was 0.944%. In addition, in test [6], the “ratio PP/QS-21” value came out at 0.18.

The values are drawn from patent US20240026407A1, “MODIFICATION OF SAPONINS” (GLAXOSMITHKLINE BIOLOGICALS SA, priority 2020, published 2024).
